Target: T1, full-length II–III loop of the skeletal muscle dihydropyridine receptor α1S subunit (UniProt P07293 665-785)
T1 construct: cytosolic II–III loop of the DHPR α1S subunit (skeletal muscle voltage-dependent L-type calcium channel), 115 amino acids; The methods' sentence 'genes for human STAC2SH3s and the DHPR II–III loop' leaves open whether the loop is human; Used unlabelled (SPR, immobilised) and 15N-labelled (NMR); also called DHPR II–III loop; full II–III loop
T1 sequence (looked up): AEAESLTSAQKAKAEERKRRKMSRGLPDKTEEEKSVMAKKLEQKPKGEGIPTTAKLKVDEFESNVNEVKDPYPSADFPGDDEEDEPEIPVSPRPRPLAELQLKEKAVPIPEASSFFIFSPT
Assay: SPR; full DHPR II–III loop immobilised on a CM5 chip by amine coupling; STAC proteins flowed over at 30 μL/min for 120 s; Biacore 8K, 20°C; 10 mM HEPES-HCl pH 7.4, 150 mM NaCl, 0.05% Tween-20, 3 mM EDTA; affinity curve
Conditions: both partners purified

B1: tandem SH3 domains of STAC3 (SH3 and cysteine-rich domain-containing protein 3) (domain or fragment, human)
chain: GFQQSHYFVALYRFKALEKDDLDFPPGEKITVIDDSNEEWWRGKIGEKVGFFPPNFIIRVRAGERVHRVTRSFVGNREIGQITLKKDQIVVQKGDEAGGYVKVYTGRKVGLFPTDFLEEI
notes: human STAC3, tandem SH3 domains (SH3_1 and SH3_2) at the C-terminal end; Used unlabelled (SPR, titrant in NMR) and 15N-labelled (NMR titration with the C3 peptide); also called STAC3SH3s
In the case of B1, the Kd is reported as 21 µM.

B2: tandem SH3 domains of STAC2 (domain or fragment, human)
chain: SYVALYKFLPQENNDLALQPGDRIMLVDDSNEDWWKGKIGDRVGFFPANFVQRVRPGENVWRCCQPFSGNKEQGYMSLKENQICVGVGRSKDADGFIRVSSGKKRGLVPVDALTEI
notes: human STAC2, tandem SH3 domains (SH3_1 and SH3_2) at the C-terminal end; Used unlabelled (SPR) and 15N-labelled (NMR); also called STAC2SH3s
For B2, the Kd was 22.6 µM.

— PMC9019556, “Molecular interactions of STAC proteins with skeletal muscle dihydropyridine receptor and excitation‐contraction coupling” (Protein Science : A Publication of the Protein Society, 2022)
